How the values were obtained:
[1] = test system: O=C(O)[C@@H]1CCCCN1; assay: purified protein, by the assay type
[2] = test system: O=C(O)[C@@H]1CCCN1; assay: purified protein, by the assay type; settings: other: substrate: L-proline, 20 mmol/L 2-oxoglutaric acid, 30° C.
[3] = other: substrate: L-pipecolic acid, 20 mmol/L 2-oxoglutaric acid, 30° C.

| Substance | Km [1, 3] | Km ([1]; 30.0 °C) | Km [2] |
| --- | --- | --- | --- |
| Colletotrichum gloeosporioides Nara qc5 L-pipecolic acid trans-4-hydroxylase CgPH, SEQ ID NO: 12 (Colletotrichum fructicola Nara gc5) | 8560 µM | – | – |
| Gibberella zeae PH-1 L-pipecolic acid trans-4-hydroxylase GzPH, SEQ ID NO: 16 (Fusarium graminearum PH-1) | – | 4720 µM | – |
| Segniliparus rugosus ATCC BAA-974 L-pipecolic acid cis-5-hydroxylase SruPH, SEQ ID NO: 4 (Segniliparus rugosus ATCC BAA-974) | 1090 µM | – | 400 µM |
